Results: patent publication US6365350B1, “Method of DNA sequencing” (The Institute of Physical and Chemical Research, priority 1997, dated 2002)
Entries after “also recorded” stand apart in the source; their conditions may differ.

Assays:
[1] = test system: 3′-dATP; assay: Inhibition of [α-32P]UTP incorporation by 3′-dATP in transcription reaction (relative activity for 3′-dATP); assay type: biochemical
[2] = test system: DNA containing T7 promoter; conditions: in vitro, compared with wild type T7 RNA polymerase
Method: Subsequent steps for purification of enzyme should be performed at a temperature lower than room temperature, preferably 0-5° C. unless otherwise indicated. The E. coli cells were washed with 10 times relative to the cell weight of a washing buffer (20 mM Tris-HCl, pH 8.1, 130 mM NaCl, 2 mM EDTANa2 at 25° C.), centrifuged again (5,000×g, 4° C., 10 minutes), suspended in 10 times in volume of a sonication buffer [50 mM Tris-HCl, pH 8.1, 100 mM NaCl, 0.1 mM EDTANa2, 5 mM dithiothreitol (DTT), 0.1 mM benzamidine, 30 μg/ml phenylmethylsulfonyl fluoride (PMSF), 10 μg/ml bacitracin], and sonicated by using Sonifier 450 (Branson) at 80W for more than 15 minutes to destroy the cells and reduce the viscosity of the cells. Then, the cell suspension is centrifuged at 12,000×g and 4° C. for ten minutes to remove the cell debris. 10% streptomycin sulfate was slowly added dropwise to the resulting supernatant to a final concentration of 2.0% with stirring, and stirring was further continued for 30 minutes. The supernatant was centrifuged at 12,000×g and 4° C. for ten minutes to remove precipitates, and slowly added with ammonium sulfate powder with stirring to form precipitates. In this case, precipitates were first collected by 30% saturation of ammonium sulfate (30% ammonium sulfate precipitation), and the resulting supernatant was further added with ammonium sulfate to 60% saturation with stirring to form precipitates again (30-60% ammonium sulfate precipitation). The supernatant was added again with ammonium sulfate powder to 90% ammonium sulfate saturation, and stirred at 4° C. for 1 hour, and the precipitates were collected by centrifugation. […] The.30′60% ammonium sulfate fraction was suspended in a small amount of column buffer (20 mM KPO4, pH 7.7, 100 mM NaCl, 1 mM DTT, 30 μg/ml PMSF), and desalted by dialysis against 500 ml of the same buffer for 16hours. The dialysate was applied on a heparin-Sepharose column of 5 ml volume (Pharmacia Biotech). Subsequently, the column was washed with the same buffer until any material absorbing ultraviolet ray at 280 nm disappeared, and eluted with a linear gradient of 0.1 M to 0.64 M NaCl in the same buffer of about 40 times volume of the column volume. The eluent was collected in test tubes as fractions of a suitable volume, and immediately subjected to SDS-acrylamide gel electrophoresis for protein analysis to identify fractions containing proteins around a molecular weight considered to be of the objective T7 RNA polymerase. […] The fractions containing the protein were collected, and desalted by dialysis against about 1 liter of the column buffer (20 mM KPO4, pH 7.7, 100 mM NaCl, 1 mM DTT, 30 μg/ml PMSF) for 16 hours. The fractions desalted by dialysis were applied to a Q-Sepharose column (Pharmacia Biotech) of 5 ml volume that preliminarily equilibrated with the same buffer, and the column was washed with the same buffer until any material absorbing ultraviolet ray at 280 nm disappeared, and eluted with a linear gradient of 0.1 M to 0.64 M NaCl in the same buffer of about 40 times volume of the column volume. The eluent was collected in test tubes as fractions of a suitable volume, and immediately subjected to SDS-acrylamide gel electrophoresis for protein analysis to identify fractions containing proteins around a molecular weight considered to be of the objective T7 RNA polymerase. […] The fractions containing the protein were collected, dialyzed against 500 ml of storage buffer (50% glycerol, 20 mM KPO4, pH 7.7, 100 mM NaCl, 1 mM DTT, 30 μg/ml PMSF) for 16 hours, and stored at −20° C. until use. In vitro RNA synthesis activity and activity of the contaminated ribonuclease of this sample were examined.

[3] = test system: dye terminators; assay: Sequencing reaction utilizing mutant T7 RNA polymerase F644Y/L665P/F667Y (Example 8); assay type: biochemical; conditions: PCR product template, n=4 dye terminators, FIG. 41
[4] = test system: 3′-dATP, 3′-dGTP, 3′-dCTP, 3′-dUTP and derivatives thereof
Method: The T7 RNA polymerases introduced with mutations were purified, and their abilities of promoter sequence specific RNA synthesis and incorporation of ribonucleoside 5′-triphosphates including ATP, GTP, CTP, UTP and derivatives thereof, as well as 3′-DATP, 3′-dGTP, 3′-dCTP, 3′-dUTP and derivatives thereof were compared with those of wild type T7 RNA polymerase.
For two kinds of reaction mixture (with or without 3′-DATP, final concentration was 100 μM), the reaction was performed at 37° C. for 60 minutes. The whole reaction mixture was spotted on DE81 paper (Whatman), washed three times with phosphate buffer, and dried. The DE81 paper was placed into a scintillation vial, and radioactivity was measured using a scintillation counter (Beckman) for each reaction. Degree of inhibition of the [α-^32P]UTP incorporation was calculated by comparing the values obtained with and without 3′-dATP based on the measured radioactivity.

B1: F644Y/L665P/F667Y: mutant T7 RNA polymerase introduced with F644Y/L665P/F667Y mutations (protein)
chain: MNTINIAKNDFSDIELAAIPFNTLADHYGERLAREQLALEHESYEMGEARFRKMFERQLKAGEVADNAAAKPLITTLLPKMIARINDWFEEVKAKRGKRPTAFQFLQEIKPEAVAYITIKTTLACLTSADNTTVQAVASAIGRAIEDEARFGRIRDLEAKHFKKNVEEQLNKRVGHVYKKAFMQVVEADMLSKGLLGGEAWSSWHKEDSIHVGVRCIEMLIESTGMVSLHRQNAGVVGQDSETIELAPEYAEAIATRAGALAGISPMFQPCVVPPKPWTGITGGGYWANGRRPLALVRTHSKKALMRYEDVYMPEVYKAINIAQNTAWKINKKVLAVANVITKWKHCPVEDIPAIEREELPMKPEDIDMNPEALTAWKRAAAAVYRKDKARKSRRISLEFMLEQANKFANHKAIWFPYNMDWRGRVYAVSMFNPQGNDMTKGLLTLAKGKPIGKEGYYWLKIHGANCAGVDKVPFPERIKFIEENHENIMACAKSPLENTWWAEQDSPFCFLAFCFEYAGVQHHGLSYNCSLPLAFDGSCSGIQHFSAMLRDEVGGRAVNLLPSETVQDIYGIVAKKVNEILQADAINGTDNEVVTVTDENTGEISEKVKLGTKALAGQWLAYGVTRSVTKRSVMTLAYGSKEYGFRQQVLEDTIQPAIDSGKGPMYTQPNQAAGYMAKLIWESVSVTVVAAVEAMNWLKSAAKLLAAEVKDKKTGEILRKRCAVHWVTPDGFPVWQEYKKPIQTRLNLMFLGQFRLQPTINTNKDSEIDAHKQESGIAPNFVHSQDGSHLRKTVVWAHEKYGIESFALIHDSFGTIPADAANLFKAVRETMVDTYESCDVLADFYDQFADQLHESQLDKMPALPAKGNLNLRDILESDFAFA
bias for the 3′-dATP incorporation ([1]; among the mutant enzymes prepared): the least bias | more likely to incorporate 3′-dATP in comparison with the wild type enzyme ([1]; from Table 1): 5.58 times | Relative activity of RNA polymerase for 3′-dATP ([1]; relative value of inhibition degree of [α-32P]UTP incorporation by 100 μM 3′-dATP, wild type normalized to 1.000, 37° C., 60 minutes): 5.580 | RNA synthesis activity [2]: maintained sufficient RNA synthesis activity | incorporation rate of dye terminators (electrogram) [3]: improvement of incorporation rate of dye terminators | bias of incorporation observed in the wild type [4]: markedly reduced | ability for incorporating 3′-dATP, 3′-dGTP, 3′-dCTP, 3′-dUTP and derivatives thereof ([4]; compared with wild type T7 RNA polymerase): marked improvement; also recorded: the highest; also recorded: markedly improved ability
